Experimental data: the supplement of paper PMC10567573
± gives the standard deviation.

Test: protein stability index of a GFP-peptide fusion (GPS, HEK-293T) (PSI 1-6); higher = more stable
[1] = treatment: DMSO, c terminus: a fixed tail appended
[2] = treatment: MLN4924 1 uM, 8 h, c terminus: a fixed tail appended
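Further: 24-mer peptide tiles fused after GFP, lentivirally expressed, FACS-sorted into six equal bins by GFP/DsRed ratio, decoded by Illumina sequencing, PSI is the read-weighted mean bin number.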

Sequence | protein stability index [1] | protein stability index [2] | protein stability index (treatment: DMSO, c terminus: native) | protein stability index (treatment: MLN4924 1 uM, 8 h, c terminus: native)
SLRDSGYFYDPIERDIEIGFLPWL [RSPH3] | 2.28 ± 0.49 | 2.37 ± 0.47 | – | –
SLSSIATCVYIAEIAPQHRRGLLV [SLC2A12] | 2.6 ± 0.81 | 2.6 ± 0.52 | – | –
SLVKELLRMCSHGEGKINYYNFVR [EFHC1] | 2.31 ± 0.32 | 2.46 ± 0.8 | – | –
SMPSYSSCTVTTVQPMDRLPYQHF [TBX5] | 2.56 ± 0.3 | 2.64 ± 0.17 | – | –
SNPGVDFGDVSERLALRQRLKCRS [GALNT9] | 4.43 ± 0.1 | 4.56 ± 0.17 | – | –
SPGIGAVYLANQAKNQSDEAKEAK [RTP4] | 5.28 ± 0.22 | 5.28 ± 0.12 | – | –
SPKTNGHIENGPFSLEQQLDDEDD [SRPK2] | 5.522 ± 0.051 | 5.56 ± 0.22 | – | –
SPLLETFSDLQVYSYRRLGEEALS [SLC22A15] | 2.44 ± 0.31 | 2.27 ± 0.23 | – | –
SPNYPSKYPPDRECIYIIEAAPRQ [NETO1] | 2.58 ± 0.11 | 2.77 ± 0.31 | – | –
SPVLLGWVEQAYADKCVCGPSAPP [TIAF1] | 2.67 ± 0.057 | 2.86 ± 0.28 | – | –
SQKDLENDPSVNSQAQETTIIASN [TOR1AIP2] | 5.37 ± 0.16 | 5.28 ± 0.29 | – | –
SQVPTGEVFYYSCEYNFVSPSKSF [CFHR2] | 2.59 ± 0.85 | 2.08 ± 0.26 | – | –
SRGYAYRDNGHSNRDEHSSRGYRN [RBMY1A1] | 4.31 ± 0.16 | 4.21 ± 0.12 | – | –
SRMKERAIDLNKKGKDNKHPMYRR [ZMYND11] | 4.12 ± 0.2 | 4.08 ± 0.46 | – | –
SRPTGQQLESLGLLAPGEQSLPCT [KISS1] | 4.29 ± 0.16 | 4.38 ± 0.25 | – | –
SRQRQSRMEKGEPYMSIQPAEDPD [SMARCE1] | 5.55 ± 0.11 | 5.57 ± 0.33 | – | –
SRSSLMPLRNDVDKRGETTSASLL [SLC2A12] | 4.55 ± 0.15 | 4.56 ± 0.11 | – | –
SSITRQKKRLQELALALKKCKPSL [TMEM120A] | 2.39 ± 0.41 | 2.81 ± 0.39 | – | –
SSPNLQVSSDGTLKYMEVTLRPTD [PCDHGC5] | 3.84 ± 0.092 | 4.12 ± 0.33 | – | –
SSSPASVTTEQLGAKMTERGSVAR [PXN] | 4.86 ± 0.42 | 4.76 ± 0.59 | – | –
SSSYEQFNGELPNGRHKIPESQFP [SRPK2] | 4.1 ± 0.24 | 4.21 ± 0.22 | – | –
STSYSPLASLPLKADTKGFCNISL [PLAGL1] | 2.38 ± 0.2 | 2.27 ± 0.2 | – | –
STYYWPRPRRYVQPPEMIGPMRPE [GAGE1] | 2.68 ± 0.33 | 3.01 ± 0.31 | – | –

Sequence | protein stability index [1] | protein stability index [2] | protein stability index (treatment: DMSO, c terminus: native) | protein stability index (treatment: MLN4924 1 uM, 8 h, c terminus: native)
SVAHLPWRMLTYKALNTFIDDLFA [CLPTM1] | 2.46 ± 0.25 | 2.28 ± 0.37 | – | –
SVINNGHNQKVHMHMVDLMSSIIC [PDS5B] | 2.02 ± 0.27 | 2.53 ± 0.3 | – | –
SVNEVDFEGRTPMHVACQHGQENI [RIPK4] | 4.31 ± 0.27 | 4.57 ± 0.076 | – | –
SVNISLDNLLPGMQPSKPQQPSLN [CLINT1] | 3.4 ± 0.23 | 3.51 ± 0.16 | – | –
SWSDGMAFCALVHSFFPDAFDYNS [SMTNL2] | 2.95 ± 0.65 | 2.9 ± 0.67 | – | –
TACLTDRGIIMTFGSGSNGCLGHG [NEK8] | 2.23 ± 0.2 | 2.28 ± 0.32 | – | –
TAPLYKDEKEQLIIPQVPLFNILA [USP39] | 2.15 ± 0.13 | 2.09 ± 0.39 | – | –
TDDDGQAPEAKDGSSFSGRVFRVT [APMAP] | 4.94 ± 0.24 | 4.74 ± 0.23 | – | –
TDLEMQIESLNEELAYMKKNHEEE [KRT13] | 5.4 ± 0.16 | 5.433 ± 0.051 | – | –
TEGFPPGGGNARATGMFLQYTVPG [ZFYVE21] | 3.11 ± 0.16 | 3.07 ± 0.27 | – | –
TEITELRRTLQGLEIELQSQLSMK [KRT13] | 2.78 ± 0.27 | 2.85 ± 0.18 | – | –
TEVITASEFHPHHCNLFVYSSSKG [PPP2R2C] | 2.73 ± 0.24 | 2.97 ± 0.29 | – | –
TFGPIPEFSRATAEKVNQDMCMKV [CRYL1] | 3.9 ± 0.25 | 3.94 ± 0.17 | – | –
TFPSGSGAHFPQVPGGAVRVAAAA [PI4K2A] | 3.81 ± 0.27 | 3.81 ± 0.32 | – | –
TGVPGSPGHIGPPGPTGPKGISGH [EMID1] | 4.33 ± 0.3 | 4.71 ± 0.27 | – | –
TGWFGGGFTSYLGFGDEDTGLELI [MIA2] | 2.07 ± 0.35 | – | – | –
TIEECCRKQKQELCEKFDYLYGIL [TRIM55] | 1.88 ± 0.54 | 2.41 ± 0.85 | – | –
TIIPILQHLKYKEHPEALSCLLLQ [INTS3] | 2.35 ± 0.15 | 2.25 ± 0.14 | – | –
TILLSYGVILHSLKTQSLEGKRKA [OR4A15] | 2.5 ± 0.082 | 2.41 ± 0.55 | – | –
TISFGSVSPGGVKLEISTKEVPVV [EPB41L3] | 2.9 ± 0.21 | 3.31 ± 0.18 | – | –
TKGVREVERALQLPREPGDSAQFT [FEM1A] | 4.72 ± 0.23 | 4.76 ± 0.29 | – | –
TKILVVNAAYFVGKWMKKFPESET [SERPINB5] | 2.56 ± 0.6 | 2.53 ± 0.47 | – | –
TKIRALQGSLENMSKLLKRQNDIL [CD207] | 2.4 ± 0.16 | 2.57 ± 0.21 | – | –

Sequence | protein stability index [1] | protein stability index [2] | protein stability index (treatment: DMSO, c terminus: native) | protein stability index (treatment: MLN4924 1 uM, 8 h, c terminus: native)
TKNKELTDEFRELRATVERMGLMK [FADS1] | 3.71 ± 0.37 | 3.55 ± 0.27 | – | –
TKVGGTNPNGGSFEEVLSSTAHAS [TPD52L1] | 4.78 ± 0.26 | 4.69 ± 0.26 | – | –
TLKCLSHHVADAYTSSQKVSPIQI [TOR1AIP2] | 2.53 ± 0.096 | 2.6 ± 0.37 | – | –
TLLKKISEASKAFQMEKIEHGYEN [TRIM55] | 2.3 ± 0.26 | 2.4 ± 0.15 | – | –
TLPVSGNLLDVYSSQGVATPAITV [TFE3] | 2.58 ± 0.24 | 2.73 ± 0.27 | – | –
TLPYPVKIKVRFSFFLQIYLIMIF [HACD3] | 2.86 ± 0.94 | 2.84 ± 0.72 | – | –
TLRDHFKGISSHSRSSLMPLRNDV [SLC2A12] | 2.96 ± 0.15 | 3.03 ± 0.37 | – | –
TNFHGVCMFCNEEFLGNRSVILNH [ZNF277] | 2.08 ± 0.33 | 2.11 ± 0.39 | – | –
TPISNEVEMESEEQIAERKRKMVS [KMT2E] | 5.02 ± 0.36 | 5.05 ± 0.18 | – | –
TPLHVAAFLGDAEIIELLILSGAR [ANKRD44] | 2.57 ± 0.7 | 2.52 ± 0.22 | – | –
TPLLIAARYGHLDVVEYLVDRCGA [FEM1A] | 2.05 ± 0.27 | 2.18 ± 0.15 | – | –
TPLTFTKVSEGQADIMISFVRGDH [MMP1] | 2.64 ± 0.28 | 2.65 ± 0.26 | – | –
TPRRVFANAHTYHINSISVNSDYE [PPP2R2B] | 3.35 ± 0.34 | 3.12 ± 0.42 | – | –
TPVSYRMAKTLVFSKVKTSLGLDH [ACSBG2] | 2.33 ± 0.33 | 2.41 ± 0.18 | – | –
TQHWPIRLDGQQEPQPFVTSDVYS [MYORG] | 3.56 ± 0.27 | 3.46 ± 0.22 | – | –
TQPTHGQFALTNGDPLNCHSYLSG [NR2F2] | 3.69 ± 0.17 | 3.87 ± 0.23 | – | –
TSCKLTDLRGVCVSGKCEPIGCDG [ADAMTSL2] | 3.4 ± 0.12 | 3.28 ± 0.27 | – | –
TSVNLGILTADLYSLFVGLFLFGY [SLC35F2] | 2.93 ± 0.26 | 3.12 ± 0.2 | – | –
TTISYLPHAPPFAGGHPAQLGLGR [JUNB] | 2.72 ± 0.2 | 2.61 ± 0.26 | – | –
TTNVKSASRQKTSLGIELHCNVSN [ZNF396] | 3.39 ± 0.29 | 3.82 ± 0.31 | – | –
TVSTSEVTSQQEPQIPVDRGSETT [TAF7L] | 5.49 ± 0.12 | 5.44 ± 0.16 | – | –
TYSLPPFLKAVLRQERVSLYPFQI [CDS1] | 2.19 ± 0.8 | 2.12 ± 0.32 | – | –
VAQRSGCEERWLVIDRKVYNISEF [FADS1] | 2.11 ± 0.084 | 2.12 ± 0.32 | – | –

Sequence | protein stability index [1] | protein stability index [2] | protein stability index (treatment: DMSO, c terminus: native) | protein stability index (treatment: MLN4924 1 uM, 8 h, c terminus: native)
VAQTGILWLLMNNCFLNLSPRKP [GAGE1] | – | – | 2.71 ± 0.17 | 2.82 ± 1.2
VARSGTPAVENKQQIGDAIRMIVR [PLK2] | 3 ± 0.22 | 3.09 ± 0.23 | – | –
VAVESMEPNNIVVLLQTSPYHVDS [TCF25] | 2.28 ± 0.38 | 2.13 ± 0.4 | – | –
VAVNGESVETLDHDSVVEMIRKGG [PDZK1] | 4.61 ± 0.27 | 4.59 ± 0.24 | – | –
VCINLPPPLTRQIAVKTLGIGKNV [GFOD1] | 2.23 ± 0.27 | 2.05 ± 0.19 | – | –
VCNINKGCGYGCQLHHVVYCFMIA [FUT8] | 2.89 ± 0.42 | 3.2 ± 0.68 | – | –
VCSQCGKVLEEGGFFEEKGAIFCP [PDLIM7] | 4.88 ± 0.22 | 4.81 ± 0.38 | – | –
VDGAGKPGAEEAQDPEGKGEQEHS [CHGA] | 5.56 ± 0.18 | 5.3 ± 0.11 | – | –
VDIKPANMEELTEVITAAEFHPHH [PPP2R2B] | 4.47 ± 0.34 | 4.42 ± 0.58 | – | –
VEKFIYENHPDVFSDSSMDHFQKF [MYOZ1] | 2.94 ± 0.2 | 3.09 ± 0.19 | – | –
VFFVCFVPYHIARIPYTKSQTEAH [P2RY14] | 3.57 ± 0.74 | 3.17 ± 0.35 | – | –
VFLPIVVLIFKSILFLPCLRKKIL [STEAP1] | 2.98 ± 0.78 | 2.98 ± 0.59 | – | –
VGRTGCFIVIDAMLERIKHEKTVD [PTPRD] | 2.25 ± 0.34 | 2.54 ± 0.26 | – | –
VILAVSYMSQVLEKEMKAQEQRLG [GMPPB] | 2.27 ± 0.42 | 2.08 ± 0.17 | – | –
VISCLEQGEEPWVQVSPEFKDSAG [ZNF75A] | 4.59 ± 0.11 | 4.68 ± 0.13 | – | –
VIVQLHKLRHLDISRDRLSSYYKF [ZER1] | 2.76 ± 0.63 | 2.56 ± 0.45 | – | –
VKKCIFLLFINHRLVESTSLRKAI [MLH1] | 3.14 ± 0.47 | 2.97 ± 0.73 | – | –
VKKLMRTSTPPPASVINNMLAEIF [ZBED1] | 2.2 ± 0.37 | 2.02 ± 0.21 | – | –
VKVPTTLAEYCIKTKVPSNDNSSD [UBE2R2] | 4.41 ± 0.21 | 4.63 ± 0.17 | – | –
VLKKLAQSRRTALATSPITVGDLG [YJU2B] | 2.614 ± 0.015 | 2.58 ± 0.24 | – | –
